Assay results taken from US20150203575A1 (Genentech, published 2015).

B1: hPILRαR126A expressed on 293T cells (receptor)
chain: QPSGSTGSGPSYLYGVTQPKHLSASMGGSVEIPFSFYYPWELATAPDVRISWRRGHFHRQSFYSTRPPSIHKDYVNRLFLNWTEGQKSGFLRISNLQKQDQSVYFCAVELDTRSSGRQQWQSIEGTKLSITQAVTTTTQRPSSMTTTWRLSSTTTTTGLRVTQGKRRSDSWHISLETAVGVAVAVTVLGIMILGLICLLRWRRRKGQQRTKATTPAREPFQNTEEPYENIRNEGQNTDPKLNPKDDGIVYASLALSSSTSPRAPPSHRPLKSPQNETLYSVLKA
notes: also called human PILRαR126A; hPILRαR126A transfectants
B4: mPILRαR133A expressed on 293T cells (receptor)
chain: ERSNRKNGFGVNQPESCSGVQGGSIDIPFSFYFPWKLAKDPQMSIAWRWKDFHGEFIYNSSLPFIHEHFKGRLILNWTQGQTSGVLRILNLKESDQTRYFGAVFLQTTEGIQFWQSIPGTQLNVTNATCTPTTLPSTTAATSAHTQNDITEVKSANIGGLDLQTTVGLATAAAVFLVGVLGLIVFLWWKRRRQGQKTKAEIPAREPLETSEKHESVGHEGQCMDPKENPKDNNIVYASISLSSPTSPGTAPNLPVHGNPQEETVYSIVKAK
notes: also called mouse PILRα133A; mPILRαR133A transfectants

What was measured:
[1] = target: T1, hCOLEC12-his (human, UniProt Q5KU26 59-742, sialylated O-glycans and N-glycans); assay: flow cytometry, transfected 293T cells, PILRα-positive cells gated
T1 construct: Whole entry named; also called human COLEC12-his; hCOLEC12 (SPR); not shown: his tag
T1 sequence (Q5KU26 59-742 S522P/G606S limits assumed): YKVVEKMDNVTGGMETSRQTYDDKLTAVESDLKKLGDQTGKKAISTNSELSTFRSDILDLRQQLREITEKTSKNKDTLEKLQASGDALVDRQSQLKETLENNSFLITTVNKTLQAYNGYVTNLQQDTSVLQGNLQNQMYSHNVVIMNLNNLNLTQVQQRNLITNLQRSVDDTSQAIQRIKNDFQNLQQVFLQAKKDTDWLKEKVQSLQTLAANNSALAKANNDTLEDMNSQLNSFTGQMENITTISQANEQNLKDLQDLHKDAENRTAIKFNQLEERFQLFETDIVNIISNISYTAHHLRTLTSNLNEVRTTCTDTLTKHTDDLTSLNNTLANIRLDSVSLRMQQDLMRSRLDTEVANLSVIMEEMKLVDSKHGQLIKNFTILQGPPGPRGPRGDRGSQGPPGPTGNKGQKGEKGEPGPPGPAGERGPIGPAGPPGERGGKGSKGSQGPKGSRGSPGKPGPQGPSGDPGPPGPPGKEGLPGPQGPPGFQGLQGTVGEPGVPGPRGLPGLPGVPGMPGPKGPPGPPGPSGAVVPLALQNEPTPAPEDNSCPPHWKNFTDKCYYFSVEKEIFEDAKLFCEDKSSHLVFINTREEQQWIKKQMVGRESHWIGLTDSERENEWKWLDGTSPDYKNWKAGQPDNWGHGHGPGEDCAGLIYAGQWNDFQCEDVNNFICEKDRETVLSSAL

[2] = target: T2, hPILRα-Fc (human; mouse, UniProt Q9UKJ1 20-197); assay: flow cytometry, transfected 293T cells
T2 construct: also called human PILRα-Fc; WT hPILRα-Fc; not shown: Fc of mouse IgG2a (PILRα-mIgG2a, called PILRα-Fc)

[3] = target: T3, mPILRα-Fc (mouse, UniProt Q2YFS3 32-198); assay: flow cytometry, transfected 293T cells
T3 construct: also called mouse PILRα-Fc; WT mPILRα-Fc; not shown: Fc of mouse IgG2a (PILRα-mIgG2a, called PILRα-Fc)
T3 sequence (Q2YFS3 32-198): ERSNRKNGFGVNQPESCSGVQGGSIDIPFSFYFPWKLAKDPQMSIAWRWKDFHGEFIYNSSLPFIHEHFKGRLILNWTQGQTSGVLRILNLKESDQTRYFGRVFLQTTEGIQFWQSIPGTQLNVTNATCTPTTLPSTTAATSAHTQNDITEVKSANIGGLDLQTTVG

[4] = target: B1; assay: flow cytometry, transfected 293T cells, PILRα-positive cells gated
[5] = target: B4; assay: as above
[6] = target: T4, hPILRαR126A-Fc (human; mouse, UniProt Q9UKJ1 20-197); assay: SPR, hPILRα R126A-Fc immobilized, response difference
T4 construct: Arg mutant of hPILRα-Fc; also called hPILRα R126-Fc; mutant hPILRα; not shown: Fc of mouse IgG2a (PILRα-mIgG2a, called PILRα-Fc)

B1
binding result [1]: no binding

B2: human CD99 expressed on 293T cells (ligand, UniProt P14209 23-185, looked up)
chain: DGGFDLSDALPDNENKKPTAIPKKPSAGDDFDLGDAVVDGENDDPRPPNPPKPMPNPNPNHPSSSGSFSDADLADGVSGGEGKGGSDGGGSHRKEGEEADAPGVIPGIVGAVVVAVAGAISSFIAYQKKKLCFKENAEQGEVDMESHRNANAEPAVQRTLLEK
notes: whole, on cells; also called hCD99; hCD99 transfectants
binding result [2]: no binding
binding result [3]: no binding

B3: mouse CD99 expressed on 293T cells (ligand, UniProt Q8VCN6 29-175, looked up)
chain: DDFNLGDALEDPNMKPTPKAPTPKKPSGGFDLEDALPGGGGGGAGEKPGNRPQPDPKPPRPHGDSGGISDSDLADAAGQGGGGAGRRGSGDEGGHGGAGGAEPEGTPQGLVPGVVAAVVAAVAGAVSSFVAYQRRRLCFREGGSAPV
modifications: sialylated O-glycans at Thr-45 and Thr-50 (cited as relevant for PILRα recognition)
notes: whole, on cells; also called mCD99; mCD99 transfectants
binding result [2]: binds
binding result [3]: binds

B4
binding result [1]: no binding

B5: mCD99-Fc (Fc fusion, mouse, UniProt Q8VCN6 29-137, looked up)
chain: DDFNLGDALEDPNMKPTPKAPTPKKPSGGFDLEDALPGGGGGGAGEKPGNRPQPDPKPPRPHGDSGGISDSDLADAAGQGGGGAGRRGSGDEGGHGGAGGAEPEGTPQG
modifications: three O-glycans NeuAc1-2Hex1HexNAc1
notes: also called mouse CD99-Fc; mCD99 (SPR analyte); not shown: Fc
binding result [4]: no binding
binding result [5]: no binding

B6: hNPDC1-Fc (Fc fusion)
chain: GHPDVAACPGSLDCALKRRARCPPGAHACGPCLQPFQEDQQGLCVPRMRRPPGGGRPQPRLEDEIDFLAQELARKESGQSTPPLPKDRQRLPEPATLGFSARGQGLELGLPSTPGTPTPTPHTSLGSPVSSDPVHMSPLEPRGGQGD
modifications: sialylated O-glycans
notes: Whole entry named; also called human NPDC1-Fc; hNPDC1 (SPR analyte); not shown: Fc
binding result [4]: no binding
binding result [5]: no binding

B7: hNPDC1-His (ligand, not shown: small tags and cut ends)
chain: GHPDVAACPGSLDCALKRRARCPPGAHACGPCLQPFQEDQQGLCVPRMRRPPGGGRPQPRLEDEIDFLAQELARKESGQSTPPLPKDRQRLPEPATLGFSARGQGLELGLPSTPGTPTPTPHTSLGSPVSSDPVHMSPLEPRGGQGD
modifications: Sialylated O-glycans, which the patent says are needed for PILRα binding, cannot be carried by the letters
notes: also called hNPDC1-His (WT); hNPDC1-His (mut) (labels name the immobilised hPILRα form)
binding result [6]: no binding (tested: 1 µM)
